# Measured values reported in patent publication US20120214165A1.
# Target: Epithelial cell adhesion molecule (EpCAM) (human) (UniProt P16422)
# Assay: cell-based or functional assay
# Chain of UniProt P16422 (P16422 24-314 M115T limits assumed): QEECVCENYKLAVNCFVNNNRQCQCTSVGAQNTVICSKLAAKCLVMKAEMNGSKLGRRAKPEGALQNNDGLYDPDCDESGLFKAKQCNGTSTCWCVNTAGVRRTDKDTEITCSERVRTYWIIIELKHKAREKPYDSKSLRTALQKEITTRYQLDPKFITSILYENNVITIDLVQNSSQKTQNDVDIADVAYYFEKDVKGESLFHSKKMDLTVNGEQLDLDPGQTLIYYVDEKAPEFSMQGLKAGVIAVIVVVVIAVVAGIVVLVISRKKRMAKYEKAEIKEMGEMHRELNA
substance,measurement,value
VB4-845 immunotoxin (from UniProt P11439 277-633),"IC50 of inhibition of proliferation, MTT based cell viability assay, ARO cells",0.7 pM
same,"IC50 of inhibition of proliferation, MTT based cell viability assay, WRO cells",1 pM
